Data as given in publication PMC4489622.
Several values for one entry are separate records, joined by “and”; a condition that tells them apart may be missing. Equal values may be shown once.

Columns and labels:
[1] = target: Helicobacter pylori DNA processing protein A (HpDprA), full length, strain J99 (Helicobacter pylori strain J99) (UniProt B5ZAA1); experiment: cross-linking; glutaraldehyde on ice, SDS-10% PAGE, silver staining; HpDprA 5 µM with 0.01% to 0.5% glutaraldehyde at 4 °C for 15 min; conditions for HpRF in the legend of Fig B in S1 File
[2] = target: Helicobacter pylori DNA processing protein A (HpDprA), full length, strain J99 (Helicobacter pylori strain J99) (UniProt B5ZAA1); experiment: SEC; Superdex 75 HR 10/300, 1X PBS, 0.3 ml/min, 500 µl injected, protein at 2 mg/ml, apparent mass from standards
[3] = target: Helicobacter pylori DNA processing protein A (HpDprA), full length, strain J99 (Helicobacter pylori strain J99) (UniProt B5ZAA1); experiment: SPR; BIAcore 3000; the same protein amine-coupled on a CM5 chip (~1000 RU) and injected; 25 °C, 10 mM HEPES pH 7.4, 150 mM NaCl, 1 mM EDTA, 0.05% P-20, 20 µl/min; kon from 1:1 Langmuir fit, koff from the main phase of a biphasic dissociation, Kd = koff/kon
[4] = target: HpDML1, C-terminal DML-1 like domain of HpDprA (residues 213-266) (Helicobacter pylori strain J99) (UniProt B5ZAA1); experiment: cross-linking; glutaraldehyde on ice, SDS-12% PAGE, silver staining; HpDML1 at 140 µM, longer incubation with the cross-linker
[5] = target: HpDML1, C-terminal DML-1 like domain of HpDprA (residues 213-266) (Helicobacter pylori strain J99) (UniProt B5ZAA1); experiment: SEC; Superdex 75 HR 10/300, 1X PBS, 0.3 ml/min, 500 µl injected, protein at 8 mg/ml, apparent mass from standards
[6] = target: HpDML1, C-terminal DML-1 like domain of HpDprA (residues 213-266) (Helicobacter pylori strain J99) (UniProt B5ZAA1); experiment: SPR; BIAcore 3000; the same protein amine-coupled on a CM5 chip (~1000 RU) and injected; 25 °C, 10 mM HEPES pH 7.4, 150 mM NaCl, 1 mM EDTA, 0.05% P-20, 20 µl/min; kon from 1:1 Langmuir fit, koff from the main phase of a biphasic dissociation, Kd = koff/kon
[7] = target: HpRF, N-terminal Rossmann fold domain of HpDprA (residues 1-212) (Helicobacter pylori strain J99) (UniProt B5ZAA1); experiment: cross-linking; glutaraldehyde on ice, SDS-10% PAGE, silver staining; HpDprA 5 µM with 0.01% to 0.5% glutaraldehyde at 4 °C for 15 min; conditions for HpRF in the legend of Fig B in S1 File
[8] = target: HpRF, N-terminal Rossmann fold domain of HpDprA (residues 1-212) (Helicobacter pylori strain J99) (UniProt B5ZAA1); experiment: SEC; Superdex 75 HR 10/300, 1X PBS, 0.3 ml/min, 500 µl injected, protein at 2 mg/ml, apparent mass from standards
[9] = target: HpRF, N-terminal Rossmann fold domain of HpDprA (residues 1-212) (Helicobacter pylori strain J99) (UniProt B5ZAA1); experiment: SPR; BIAcore 3000; the same protein amine-coupled on a CM5 chip (~1000 RU) and injected; 25 °C, 10 mM HEPES pH 7.4, 150 mM NaCl, 1 mM EDTA, 0.05% P-20, 20 µl/min; kon from 1:1 Langmuir fit, koff from the main phase of a biphasic dissociation, Kd = koff/kon

Helicobacter pylori DNA processing protein A (HpDprA), full length, strain J99 (from UniProt B5ZAA1 1-266) (natural protein)
stoichiometry N [1]: 2 and 3 | stoichiometry N [2]: 2 | Kd [3]: 22.3 nM

HpDML1, C-terminal DML-1 like domain of HpDprA (residues 213-266) (from UniProt B5ZAA1 213-266) (domain or fragment)
stoichiometry N [4]: 2 | stoichiometry N [5]: 2 | Kd [6]: 2350 nM

HpRF, N-terminal Rossmann fold domain of HpDprA (residues 1-212) (from UniProt B5ZAA1 1-212) (domain or fragment)
stoichiometry N [7]: 2 | stoichiometry N [8]: 2 | Kd [9]: 22.8 nM
